For the data set, the system named is T1, Nc1ncnc2c1ncn2[C@@H]1O[C@H](COP(=O)(O)OP(=O)(O)OP(=O)(O)O)[C@@H](O)[C@H]1O.
T1 construct: full-length DGKα (aa 1–735), N-terminal His×6 tag, Sf9-expressed
In words: Michaelis–Menten kinetics, mixed micelle ADP-Glo assay (Km). In kind it is biochemical, Homo sapiens. The note with it: Mg2+, Ca2+ substrate (ATP and DG) binding sites locate in the CD.

Chain of diacylglycerol kinase α (DGKα) (Homo sapiens) (chain, as listed by the source): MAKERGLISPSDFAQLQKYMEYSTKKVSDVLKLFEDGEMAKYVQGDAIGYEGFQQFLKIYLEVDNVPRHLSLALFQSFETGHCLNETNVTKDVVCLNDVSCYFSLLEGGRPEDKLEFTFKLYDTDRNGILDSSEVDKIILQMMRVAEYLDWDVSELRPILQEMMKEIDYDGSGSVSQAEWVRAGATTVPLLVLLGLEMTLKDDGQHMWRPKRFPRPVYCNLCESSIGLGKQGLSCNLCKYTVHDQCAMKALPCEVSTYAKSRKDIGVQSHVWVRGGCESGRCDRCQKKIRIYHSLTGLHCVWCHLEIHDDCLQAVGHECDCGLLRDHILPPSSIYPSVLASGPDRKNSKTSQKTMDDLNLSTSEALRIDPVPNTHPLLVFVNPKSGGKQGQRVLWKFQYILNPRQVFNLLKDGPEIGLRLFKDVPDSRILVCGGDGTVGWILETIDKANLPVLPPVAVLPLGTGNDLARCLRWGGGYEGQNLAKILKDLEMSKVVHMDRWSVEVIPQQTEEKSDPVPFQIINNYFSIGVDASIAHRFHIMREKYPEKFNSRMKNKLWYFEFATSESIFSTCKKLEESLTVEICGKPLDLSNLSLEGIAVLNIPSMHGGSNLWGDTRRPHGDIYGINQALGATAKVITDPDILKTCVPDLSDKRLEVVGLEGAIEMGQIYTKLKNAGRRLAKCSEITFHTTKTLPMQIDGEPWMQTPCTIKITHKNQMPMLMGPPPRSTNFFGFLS

Turning to “diacylglycerol kinase α (DGKα) (Homo sapiens)”, the Km is 240 ± 30 µM and the Vmax came out at 2.66 ± 0.15 nmol/min/µg.

One may read the Km as the substrate concentration at which the rate is half of its maximum.

The values above are taken from PMC6089211, “Expression and purification of human diacylglycerol kinase α from baculovirus-infected insect cells for structural studies” (PeerJ, 2018).
